Experimental findings from patent US20050048050A1 (CITY OF HOPE, published 2005) are described below.

The assay concerns the target T1, purified human insulin-like growth factor I receptor (IGF-IR) (human, UniProt P08069 31-1367, limits assumed).
T1 construct: The natural receptor is made of alpha and beta subunits from one precursor; also called IGF-R; human IGF-1 receptor
Description: SPR (BIAcore), IGF-IR immobilised on the chip, antibody as analyte. Here is the method:
The affinity constants of 1H7 (10⁹ M⁻¹) and αIGF-IR scFv-Fc (10⁸ M⁻¹) for IGF-IR were determined using a BIAcore instrument (BIAcore Inc., Piscataway, N.J.). Analytes, at various concentrations, were passed over IGF-IR-immobilized chips (0.3 μg/chip) at a flow rate of 5 μl/min.
A general note: Surface plasmon resonance follows binding to a sensor surface in real time, without labels.

T1 sequence (P08069 31-1367 limits assumed, form in doubt): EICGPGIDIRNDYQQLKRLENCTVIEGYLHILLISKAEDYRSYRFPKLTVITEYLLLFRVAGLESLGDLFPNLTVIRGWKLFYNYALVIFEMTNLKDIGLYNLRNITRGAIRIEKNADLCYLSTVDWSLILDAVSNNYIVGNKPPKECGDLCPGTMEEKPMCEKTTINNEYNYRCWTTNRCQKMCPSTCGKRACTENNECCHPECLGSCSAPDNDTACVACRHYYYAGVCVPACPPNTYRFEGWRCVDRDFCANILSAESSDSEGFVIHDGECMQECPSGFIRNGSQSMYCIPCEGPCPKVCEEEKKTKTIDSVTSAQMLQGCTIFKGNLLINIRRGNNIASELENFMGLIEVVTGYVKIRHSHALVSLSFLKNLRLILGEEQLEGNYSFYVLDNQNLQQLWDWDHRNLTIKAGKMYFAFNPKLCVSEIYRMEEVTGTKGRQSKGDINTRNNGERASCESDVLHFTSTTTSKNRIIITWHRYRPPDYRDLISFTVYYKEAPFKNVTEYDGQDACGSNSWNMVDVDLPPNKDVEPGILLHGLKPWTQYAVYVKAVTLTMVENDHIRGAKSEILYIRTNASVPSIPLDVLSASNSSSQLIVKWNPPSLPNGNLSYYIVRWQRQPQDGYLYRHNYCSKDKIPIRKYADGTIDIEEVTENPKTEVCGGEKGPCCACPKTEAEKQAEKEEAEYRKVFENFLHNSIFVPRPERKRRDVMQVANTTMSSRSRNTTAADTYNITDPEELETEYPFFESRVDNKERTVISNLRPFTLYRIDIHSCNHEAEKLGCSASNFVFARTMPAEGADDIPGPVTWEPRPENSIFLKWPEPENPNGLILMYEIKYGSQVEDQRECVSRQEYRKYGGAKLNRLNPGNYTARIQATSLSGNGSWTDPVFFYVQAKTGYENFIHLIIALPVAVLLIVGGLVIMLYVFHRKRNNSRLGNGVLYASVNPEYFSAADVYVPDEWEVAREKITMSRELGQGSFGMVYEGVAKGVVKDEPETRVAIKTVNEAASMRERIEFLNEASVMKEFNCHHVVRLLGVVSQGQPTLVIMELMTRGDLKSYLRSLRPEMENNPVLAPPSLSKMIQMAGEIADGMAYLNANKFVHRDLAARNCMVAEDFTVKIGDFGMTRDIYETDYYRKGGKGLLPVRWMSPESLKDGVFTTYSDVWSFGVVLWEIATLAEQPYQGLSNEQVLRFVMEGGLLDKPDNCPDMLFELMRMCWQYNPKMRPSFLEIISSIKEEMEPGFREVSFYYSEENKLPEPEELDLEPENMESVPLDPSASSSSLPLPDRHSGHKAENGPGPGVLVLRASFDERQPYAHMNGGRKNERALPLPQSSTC

B1: αIGF-IR scFv-Fc (chimeric single-chain antibody against human insulin-like growth factor I receptor) (Fc fusion)
chain: DIVMTQSHKFMSTSVGDRVNITCKASQDVNTAVAWYQQKPGQSPKLLIYWASTRHTGVPDRFTGSGSGTDFTLTISSVQAEDLTLYYCHQHYTTPYTFGGGTNLEIKGGGGSGGGSGGGGSGGGSEVKVVESGGGLVKPGGSLKLSCAASGFTFSIYAMSWVRQTPEKKLEWVASISNGGTTYYPDSVKGRFTISRDNARNILYLQMNSLRSEDTAMYYCARTFYYSFPRAMDYWGQGTSVTVSS
notes: Divalent antibody with an expected Mr of 120 kDa, expressed in NS0 cells and purified on protein A. The signal peptide from the mT84.66 light chain is left out; not shown: human IgG1 Fc domain (cDNA clone from Dr. J. Schlom), SalI fragment inserted into the XhoI site of pcDNA/αIGF-IR scFv
B1 displayed a Ka of 1e+08 M⁻¹.

B2: mouse monoclonal antibody 1H7 (antibody, V domains shown)
VH: EVKVVESGGGLVKPGGSLKLSCAASGFTFSIYAMSWVRQTPEKKLEWVASISNGGTTYYPDSVKGRFTISRDNARNILYLQMNSLRSEDTAMYYCARTFYYSFPRAMDYWGQGTSVTVSS
VL: DIVMTQSHKFMSTSVGDRVNITCKASQDVNTAVAWYQQKPGQSPKLLIYWASTRHTGVPDRFTGSGSGTDFTLTISSVQAEDLTLYYCHQHYTTPYTFGGGTNLEIK
notes: Whole murine monoclonal antibody; also called 1H7 mAb
Turning to B2, the Ka came to 1e+09 M⁻¹.
